Experiments:
ETBR = molecular target: T1, ETBR (Homo sapiens, UniProt P24530); test: Scatchard analysis of antibody binding sites per cell with 125I-labeled Hu5E9v1-ADC; conditions: 4 h on ice, estimated
T1 sequence (P24530 27-442): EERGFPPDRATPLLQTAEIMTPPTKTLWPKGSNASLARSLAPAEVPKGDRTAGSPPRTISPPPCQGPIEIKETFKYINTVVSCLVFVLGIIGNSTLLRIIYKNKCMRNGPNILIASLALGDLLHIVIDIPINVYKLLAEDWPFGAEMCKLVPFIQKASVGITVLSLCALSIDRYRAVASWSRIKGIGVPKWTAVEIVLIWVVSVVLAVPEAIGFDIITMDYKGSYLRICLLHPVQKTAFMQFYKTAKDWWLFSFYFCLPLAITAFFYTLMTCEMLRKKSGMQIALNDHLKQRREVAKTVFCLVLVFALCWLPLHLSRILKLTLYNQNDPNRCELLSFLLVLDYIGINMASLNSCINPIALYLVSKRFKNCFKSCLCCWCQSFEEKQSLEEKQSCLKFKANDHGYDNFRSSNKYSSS
Procedure: A determination of antibody binding sites per cell was performed (Scatchard analysis): The affinity constant and the number of cell surface binding sites for each antibody were estimated by incubating the melanoma cells for 4 h on ice with a fixed concentration of ^125I-labeled Hu5E9v1-ADC combined with increasing concentrations of unlabeled Hu5E9v1-ADC. The data were analyzed by nonlinear curve fitting using an analysis program method.

A2058 melanoma xenograft = test: In vivo efficacy, subcutaneous melanoma xenograft, tumor volume / % TGI; parameters: species or system mice; conditions: for % TGI Single Agent Anti-ETBR ADC vs. control: A2058
Procedure: (§1) Next, efficacy studies were performed using the melanoma cells lines in the xenografts mouse models described above. All studies were conducted in accordance with the Guide for the Care and Use of Laboratory Animals (Ref: Institute of Laboratory Animal Resources (NIH publication no. 85-23), Washington, D.C.: National Academies Press; 1996). 10- to 14-week-old female CRL Nu/Nu or NCr nude mice from Charles River Laboratories were inoculated subcutaneously in the dorsal right flank with either 5×10^6 UACC-257X2.2 cells in HBSS with Matrigel or 5×10^6 A2058 cells in HBSS with Matrigel. When tumor volumes reached approximately 200 mm^3 (day 0), animals were randomized into groups of 10 each.
(§2) For single agent efficacy studies, the anti-ETBR ADC candidate Hu5E9v1-ADC was administered as a single intravenous (IV) injection on day 0 at 1 mpk, 3 mpk, or 6 mpk (mg/kg). A control ADC antibody and vehicle control were also administered. Average tumor volumes with standard deviations were determined from 10 animals per group. Tumor volumes were measured twice per week until study end.
(§3) The average tumor volumes were determined from 10 animals per group. Tumor volumes were measured twice per week until study end. Tumor volumes were measured in two dimensions (length and width) using UltraCal IV calipers (Model 54 10 111, Fred V. Fowler Company; Newton, Mass.). The following formula was used with Excel, version 12.2.8 (Microsoft; Redmond, Wash.) to calculate tumor volume: Tumor Volume (mm3)=[…]
(§4) To analyze the repeated measurement of tumor volumes from the same animals over time, a mixed-modeling Linear Mixed Effects (LME) approach was used (Pinheiro et al. 2009). This approach can address both repeated measurements and a modest drop-out rate due to non-treatment-related termination of animals prior to study end. Cubic regression splines were used to fit a non-linear profile to the time courses of log 2 tumor volume at each dose level. These non-linear profiles were then related to dose within the mixed model. Tumor growth inhibition (TGI) as a percentage of vehicle was calculated as percent area under the fitted curve (AUC) per day in relation to the vehicle, using the following formula:
(§5) Using this formula, a TGI value of 100% indicates tumor stasis, of >1% but <100% indicates tumor growth delay, and of >100% indicates tumor regression. To get uncertainty intervals (UIs) for % TGI, the fitted curve and the fitted covariance matrix were used to generate a random sample as an approximation to the distribution of % TGI. The random sample is composed of 1000 simulated realizations of the fitted-mixed model, where the % TGI has been recalculated for each realization. Here, in the reported UI is the value for which 95% of the time, the recalculated values of % TGI will fall in this region given the fitted model. The 2.5 and 97.5 percentiles of the simulated distribution were used as the […] UIs.
Tumors were grown to an average size of approximately 200 mm^3, whereupon animals were randomized into groups of 10 each. […] A single dose of Hu5E9v1-ADC at either 3 mpk or 6 mpk or control, a histidine buffer #8, was administered intraveneously into the tail vein on day 1 (after three doses of RG7204).
To do this, the in vivo efficacy for various combinations of Hu5E9v1-ADC and MEKi-623 and/or MEKi-973 were evaluated against A2058 and SK-MEL-23 and IPC-298 melanoma in vivo models, performed as described above in Example 4. An appropriate methylcellulose tween vehicle control (0.5% methylcellulose, 0.2% Tween-80 (MCT) or MEK inhibitor at doses of 1 mpk, 3 mpk or 7.5 mpk were administered orally once a day×21 days beginning on study Day 0. A single 3 mpk or 6 mpk dose of Hu5E9v1-ADC or control, a histidine buffer #8, was administered intraveneously (after two doses of a MEK inhibitor) via tail vein at study Day 1.

[1] = test system: UACC-257X2.2 melanoma xenograft; test: as above; parameters: species or system mice; conditions: for % TGI Single Agent Anti-ETBR ADC vs. control: UACC257-X2.2
Procedure: as §1, §2
To do this, the in vivo efficacy for various combinations of Hu5E9v1-ADC and BRAFi-945 were evaluated against the UACC-257X2.2 melanoma model described above. Tumors were grown to an average size of approximately 200 mm^3, whereupon animals were randomized into groups of 10 each. An appropriate vehicle control (Klucel LF) or BRAFi-945 at doses of 1 mpk, 6 mpk or 20 mpk were administered orally once a day×21 days beginning on study Day 0. A single 1 mpk or 3 mpk dose of Hu5E9v1-ADC or control, a histidine buffer #8, was administered intraveneously (after two doses of 945) via tail vein at study Day 1.
as §3, §4, §5

[2] = test system: COLO 829 melanoma xenograft; test: as above; parameters: species or system mice
Procedure: The average tumor volumes were determined from 10 animals per group. Tumor volumes were measured twice per week until study end. Tumor volumes were measured in two dimensions (length and width) using UltraCal IV calipers (Model 54 10 111, Fred V. Fowler Company; Newton, Mass.). The following formula was used with Excel, version 12.2.8 (Microsoft; Redmond, Wash.) to calculate tumor volume: Tumor Volume (mm3)=(length×width)×0.5
To get uncertainty intervals (UIs) for % TGI, the fitted curve and the fitted covariance matrix were used to generate a random sample as an approximation to the distribution of % TGI. The random sample is composed of 1000 simulated realizations of the fitted-mixed model, where the % TGI has been recalculated for each realization. Here, in the reported UI is the value for which 95% of the time, the recalculated values of % TGI will fall in this region given the fitted model. The 2.5 and 97.5 percentiles of the simulated distribution were used as the upper and lower UIs.
The COLO 829 xenograft model was chosen as representative of medium levels of ETBR expression, further increasing the stringency of the combination studies. Tumors were grown to an average size of approximately 200 mm^3, whereupon animals were randomized into groups of 9 each. An appropriate vehicle control (Klucel LF) or G00044364.1-12 (RG7204) at doses of 10 mpk or 30 mpk were administered orally twice a day for 21 days starting on day 0.

A2058 melanoma cell line = test: In vitro cell killing, CellTiter-Glo cell viability; assay type: cell-based, human; conditions: A2058 (low ETBR copy number), 5 days
Procedure: (§6) The melanoma cell lines A2058 and UACC-257X2.2 were grown in appropriate media at 37° C. and 5% CO2. To assess the effects of Hu5E9v1-ADC on cell viability, cells were plated at 1,500 per well in 50 μL, of normal growth medium in 96-well clear-bottom black plates. Twenty-four hours later, an additional 50 μL, of culture medium with serial dilutions of Hu5E9v1-ADC concentrations was added to triplicate wells. Five days later, cell survival was determined using CellTiter-Glo Luminescent Cell Viability Reagent (G7572; Promega Corporation) and with an EnVision 2101 Mutilabel Reader (Perkin-Elmer).

[3] = test system: UACC-257X2.2 melanoma cell line; test: as above; assay type: cell-based, human; conditions: UACC-257X2.2 (high ETBR copy number), 5 days
Procedure: as §6

[4] = Anti-ETBR ADC single dose 3 mg/kg
[5] = Anti-ETBR ADC single dose 1 mg/kg

B1: Hu5E9v1-ADC: anti-ETBR antibody Hu5E9v1 conjugated to MMAE through a vc linker (antibody drug conjugate) (conjugate)
VH: EVQLVESGGGLVQPGGSLRLSCAASGYTFTSYWMQWVRQAPGKGLEWIGTIYPGDGDTSYAQKFKGRATLSTDKSKNTAYLQMNSLRAEDTAVYYCARWGYAYDIDNWG
VL: DIQMTQSPSSLSASVGDRVTITCKSSQSLLDSDGKTYLNWLQQKPGKAPKRLIYLVSKLDSGVPSRFSGSGSGTDFTLTISSLQPEDFATYYCWQGTHFPYTFGQGTKVEIK
ETBR; A2058 cells
  number of Hu5E9v1-ADC binding sites: 1,582 sites per cell
ETBR; UACC-257X2.2 cells
  number of Hu5E9v1-ADC binding sites: 33,939 sites per cell
A2058 melanoma xenograft; [4]
  % TGI Single Agent Anti-ETBR ADC vs. control: 39%
A2058 melanoma xenograft; Anti-ETBR ADC single dose 6 mg/kg
  % TGI Single Agent Anti-ETBR ADC vs. control: 85%
A2058 melanoma xenograft; single IV dose 3 mg/kg
  single agent efficacy, tumor burden: Efficacy was not apparent
A2058 melanoma xenograft; single IV dose 6 mpk, relative to matching dose of control ADC or vehicle
  single agent efficacy, tumor burden: partial reduction in tumor burden
[1]; [5]
  % TGI Single Agent Anti-ETBR ADC vs. control: 69%
[1]; [4]
  % TGI Single Agent Anti-ETBR ADC vs. control: 112%
[1]; single IV dose 1 mg/kg on day 0
  single agent efficacy, tumor volume: efficacy was not apparent
[1]; single IV dose of 3 and 6 mg/kg on day 0
  single agent efficacy, tumor volume: sustained tumor regression
[2]; [5]
  % TGI Single Agent Anti-ETBR ADC vs. control: 31%
[2]; [4]
  % TGI Single Agent Anti-ETBR ADC vs. control: 33%
A2058 melanoma cell line
  cell killing by ADC titration relative to control ADC: specific cell killing relative to control ADC
[3]
  cell killing by ADC titration relative to control ADC: specific cell killing relative to control ADC

Reference: patent US20140341916A1, “THERAPEUTIC COMBINATIONS AND METHODS OF TREATING MELANOMA” (Genentech, Inc., priority 2011, published 2014)
